Assay results published in US20230056470A1, “USES OF ANTI-TGF-BETA ANTIBODIES AND CHECKPOINT INHIBITORS FOR THE TREATMENT OF PROLIFERATIVE DISEASES” (NOVARTIS AG, priority 2019, published 2023).

How the values were obtained:
[1] = Population PK analysis and model-based simulations of NIS793 (dose escalation phase of CNIS793X2101); design: species or system human
Protocol: This is consistent with the observation that NIS793 PK appears dose proportional and time-independent based on the non-compartmental analyses.
Further a dose of 1400 mg would also match exposure observed at 20 mg/kg.

[2] = Clinical PK of NIS793, study CNIS793X2101 (single agent and combination with PDR001; escalation and expansion; cycles 1 and 3); type: in vivo, human
[3] = Clinical PK of PDR001 in combination with NIS793, study CNIS793X2101; type: in vivo, human; details: 100 or 300 mg Q3W and 400 mg Q4W
[4] = Mean, cycle 1, NIS793 0.3 mg/kg Q3W + PDR 100 mg Q3W, escalation
[5] = Mean, cycle 1, NIS793 0.3 mg/kg Q3W + PDR 300 mg Q3W, escalation
[6] = Mean, cycle 1, NIS793 0.3 mg/kg Q3W Liquid, single agent, escalation
[7] = Mean, cycle 1, NIS793 1 mg/kg Q3W + PDR 300 mg Q3W, escalation
[8] = Mean, cycle 1, NIS793 1 mg/kg Q3W Liquid, single agent, escalation
[9] = Mean, cycle 1, NIS793 1 mg/kg Q3W Lyophilisate, single agent, escalation
[10] = Mean, cycle 1, NIS793 3 mg/kg Q3W + PDR 300 mg Q3W, escalation
[11] = Mean, cycle 1, NIS793 10 mg/kg Q3W + PDR 300 mg Q3W, escalation
[12] = Mean, cycle 1, NIS793 20 mg/kg Q2W + PDR 400 mg Q4W, escalation
[13] = Mean, cycle 1, NIS793 30 mg/kg Q2W + PDR 400 mg Q4W, escalation
[14] = Mean, cycle 1, NIS793 30 mg/kg Q3W + PDR 300 mg Q3W, escalation
[15] = cycle 1, NIS793 2100 mg Q3W + PDR 300 mg Q3W, MSS-CRC, expansion, mean
[16] = cycle 1, NIS793 2100 mg Q3W + PDR 300 mg Q3W, NSCLC, expansion, mean
[17] = cycle 3, NIS793 0.3 mg/kg Q3W + PDR 100 mg Q3W, escalation, mean
[18] = cycle 3, NIS793 0.3 mg/kg Q3W + PDR 300 mg Q3W, escalation, mean
[19] = cycle 3, NIS793 0.3 mg/kg Q3W Liquid, single agent, escalation, mean
[20] = cycle 3, NIS793 1 mg/kg Q3W + PDR 300 mg Q3W, escalation, mean
[21] = cycle 3, NIS793 1 mg/kg Q3W Liquid, single agent, escalation, mean
[22] = cycle 3, NIS793 1 mg/kg Q3W Lyophilisate, single agent, escalation, mean
[23] = cycle 3, NIS793 3 mg/kg Q3W + PDR 300 mg Q3W, escalation, mean
[24] = cycle 3, NIS793 10 mg/kg Q3W + PDR 300 mg Q3W, escalation, mean
[25] = cycle 3, NIS793 20 mg/kg Q2W + PDR 400 mg Q4W, escalation, mean
[26] = cycle 3, NIS793 30 mg/kg Q3W + PDR 300 mg Q3W, escalation, mean
[27] = cycle 3, NIS793 2100 mg Q3W + PDR 300 mg Q3W, MSS-CRC, expansion, mean (SD)

Substance: NIS793: fully human IgG2, human/mouse cross-reactive, TGF-β-neutralizing antibody; heavy and light chain SEQ ID NOs: 9 and 10
- Population PK model that describes NIS793 pharmacokinetics ([1]; dose escalation concentration data): two compartment model with first order elimination from the central compartment
- Estimated exponent of body weight as covariate on clearance (power model) ([1]; population PK model, CV %=40%): 0.55
- Increase in NIS793 exposure (Cycle 1 Cmax and AUClast) with dose ([2]; 30 minute intravenous infusion, 0.3 mg/kg to 30 mg/kg): approximately dose-proportional increase
- AUClast [2, 4]: 1360000 ng·h/mL
- Clast [2, 4]: 1400 ng/mL
- Cmax [2, 4]: 6440 ng/mL
- AUClast [2, 5]: 1700000 ng·h/mL
- Clast [2, 5]: 1530 ng/mL
- Cmax [2, 5]: 11200 ng/mL
- AUClast [2, 6]: 1140000 ng·h/mL
- Clast [2, 6]: 1060 ng/mL
- Cmax [2, 6]: 7180 ng/mL
- AUClast [2, 7]: 5850000 ng·h/mL
- Clast [2, 7]: 8790 ng/mL
- Cmax [2, 7]: 30800 ng/mL
- AUClast [2, 8]: 4170000 ng·h/mL
- Clast [2, 8]: 4320 ng/mL
- Cmax [2, 8]: 24900 ng/mL
- AUClast [2, 9]: 4770000 ng·h/mL
- Clast [2, 9]: 4780 ng/mL
- Cmax [2, 9]: 27600.0 ng/mL
- AUClast [2, 10]: 11400000 ng·h/mL
- Clast [2, 10]: 14300 ng/mL
- Cmax [2, 10]: 58400 ng/mL
- AUClast [2, 11]: 3750000 ng·h/mL
- Clast [2, 11]: 44800 ng/mL
- Cmax [2, 11]: 181000 ng/mL
- AUClast [2, 12]: 54500000 ng·h/mL
- Clast [2, 12]: 107000 ng/mL
- Cmax [2, 12]: 333000 ng/mL
- AUClast [2, 13]: 69100000 ng·h/mL
- Clast [2, 13]: 154000 ng/mL
- Cmax [2, 13]: 439000 ng/mL
- AUClast [2, 14]: 90900000 ng·h/mL
- Clast [2, 14]: 133000 ng/mL
- Cmax [2, 14]: 519000 ng/mL
- AUClast [2, 15]: 94700000 ng·h/mL
- Clast [2, 15]: 206000 ng/mL
- Cmax [2, 15]: 547000 ng/mL
- AUClast [2, 16]: 140000000 ng·h/mL
- Clast [2, 16]: 180000 ng/mL
- Cmax [2, 16]: 743000 ng/mL
- AUClast [2, 17]: 2530000 ng·h/mL
- Clast [2, 17]: 2960 ng/mL
- Cmax [2, 17]: 8990 ng/mL
- AUClast [2, 18]: 2960000 ng·h/mL
- Clast [2, 18]: 3330 ng/mL
- Cmax [2, 18]: 11600 ng/mL
- AUClast [2, 19]: 1820000 ng·h/mL
- Clast [2, 19]: 1900 ng/mL
- Cmax [2, 19]: 8750 ng/mL
- AUClast [2, 20]: 5630000 ng·h/mL
- Clast [2, 20]: 9710 ng/mL
- Cmax [2, 20]: 31300 ng/mL
- AUClast [2, 21]: 2910000 ng·h/mL
- Clast [2, 21]: 4290 ng/mL
- Cmax [2, 21]: 9830 ng/mL
- AUClast [2, 22]: 4090000 ng·h/mL
- Clast [2, 22]: 6350 ng/mL
- Cmax [2, 22]: 13800 ng/mL
- AUClast [2, 23]: 13900000 ng·h/mL
- Clast [2, 23]: 16100 ng/mL
- Cmax [2, 23]: 55200 ng/mL
- AUClast [2, 24]: 69200000 ng·h/mL
- Clast [2, 24]: 95900 ng/mL
- Cmax [2, 24]: 220000 ng/mL
- AUClast [2, 25]: 149000000 ng·h/mL
- Clast [2, 25]: 154000 ng/mL
- Cmax [2, 25]: 524000 ng/mL
- AUClast [2, 26]: 242000000 ng·h/mL
- Clast [2, 26]: 228000 ng/mL
- Cmax [2, 26]: 713000 ng/mL
- AUClast [2, 27]: 95500000 (88500000) h*ng/mL
- Clast [2, 27]: 341000 (313000) ng/mL
- Cmax [2, 27]: 590000 (319000) ng/mL
- Between subject variability (CV %) for Cmax ([2]; patients, across dose cohorts): 12.1 to 73.3%

Substance: PDR001: anti-PD-1 inhibitor spartalizumab, also known as PDR001 (Novartis)
- PK of PDR001 in combination with NIS793 versus single agent data [3]: appears to be similar to the single agent data
